# From patent US20240309073A1 (SERUM INSTITUTE OF INDIA PRIVATE, published 2024)
# Legend:
# Assay in all cases: cell-based or functional assay
# [1] = target: T1, Dengue virus serotype DV2 (Dengue virus serotype 2 (DV2), UniProt P29990 281-775)
# [2] = target: T2, Dengue virus serotype DV3 (Dengue virus serotype 3 (DV3), UniProt Q6YMS4 281-773)
# [3] = target: T3, Dengue virus serotype DV4 (Dengue virus serotype 4 (DV4), UniProt P09866 280-774)
# [4] = target: T1, Dengue virus serotype DV2; remark: listed apart in the source
# [5] = target: T2, Dengue virus serotype DV3; remark: listed apart in the source
# [6] = target: T3, Dengue virus serotype DV4; remark: listed apart in the source
# [7] = target: T1, Dengue virus serotype DV2; remark: listed apart in the source
# T3 sequence (P09866 280-774 limits assumed): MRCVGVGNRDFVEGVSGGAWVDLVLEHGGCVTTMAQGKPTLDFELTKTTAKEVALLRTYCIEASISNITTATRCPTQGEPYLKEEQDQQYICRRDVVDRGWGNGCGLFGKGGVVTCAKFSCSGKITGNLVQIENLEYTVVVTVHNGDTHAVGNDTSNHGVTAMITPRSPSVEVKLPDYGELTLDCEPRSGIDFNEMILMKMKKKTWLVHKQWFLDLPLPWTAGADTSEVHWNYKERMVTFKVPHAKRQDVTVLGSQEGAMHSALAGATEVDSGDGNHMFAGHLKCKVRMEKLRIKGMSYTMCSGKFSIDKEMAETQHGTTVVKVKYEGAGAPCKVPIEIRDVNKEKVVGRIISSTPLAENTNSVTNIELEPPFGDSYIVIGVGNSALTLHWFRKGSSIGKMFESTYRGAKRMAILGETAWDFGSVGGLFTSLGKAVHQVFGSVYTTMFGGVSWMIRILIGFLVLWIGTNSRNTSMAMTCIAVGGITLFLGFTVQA
binder,measurement,setting,value
"Dengue (VIS513) Monoclonal antibody (antibody, human IgG1, kappa, V domains shown) VH: QVQLVQSGAEVKKPGASVKVSCKAGFNIKDVYMSWVRQAPEQGLEWMGRIDPENGDTKYDPKLQGRVTMTADTSTNTAYMELRSLRSDDTAVYYCARGWEGFAYWGQGTLVTVSS VL: DIVMTQSPASLAVSLGERATISCRASENVDKYGNSFMHWYQQKPGQPPKLLIYRASELQWGVPDRFSGSGSGTDFTLTISSLQAEDVAVYYCQRSNEVPWTFGQGTKLEIKR","EC50 (ng/ml) by PRNT assay; Batch 1, stored at 2-8° C., 0 day",[1],5.9 ng/mL
same,"EC50 (ng/ml) by PRNT assay; Batch 1, stored at 2-8° C., 3 months",[1],8.03 ng/mL
same,"EC50 (ng/ml) by PRNT assay; Batch 1, stored at 2-8° C., 6 months",[1],3.58 ng/mL
same,"EC50 (ng/ml) by PRNT assay; Batch 1, stored at 2-8° C., 9 months",[1],3.31 ng/mL
same,"EC50 (ng/ml) by PRNT assay; Batch 2, stored at 2-8° C., 0 day",[1],3.26 ng/mL
same,"EC50 (ng/ml) by PRNT assay; Batch 2, stored at 2-8° C., 3 months",[1],5.69 ng/mL
same,"EC50 (ng/ml) by PRNT assay; Batch 2, stored at 2-8° C., 6 months",[1],4.15 ng/mL
same,"EC50 (ng/ml) by PRNT assay; Batch 2, stored at 2-8° C., 9 months",[1],2.87 ng/mL
same,"EC50 (ng/ml) by PRNT assay; Batch 1, stored at 2-8° C., 0 day",[2],14.4 ng/mL
same,"EC50 (ng/ml) by PRNT assay; Batch 1, stored at 2-8° C., 3 months",[2],14.7 ng/mL
same,"EC50 (ng/ml) by PRNT assay; Batch 1, stored at 2-8° C., 6 months",[2],5.58 ng/mL
same,"EC50 (ng/ml) by PRNT assay; Batch 1, stored at 2-8° C., 9 months",[2],4.57 ng/mL
same,"EC50 (ng/ml) by PRNT assay; Batch 2, stored at 2-8° C., 0 day",[2],13.2 ng/mL
same,"EC50 (ng/ml) by PRNT assay; Batch 2, stored at 2-8° C., 6 months",[2],6.53 ng/mL
same,"EC50 (ng/ml) by PRNT assay; Batch 2, stored at 2-8° C., 9 months",[2],7.05 ng/mL
same,"EC50 (ng/ml) by PRNT assay; Batch 1, stored at 2-8° C., 0 day",[3],30.3 ng/mL
same,"EC50 (ng/ml) by PRNT assay; Batch 1, stored at 2-8° C., 3 months",[3],50.8 ng/mL
same,"EC50 (ng/ml) by PRNT assay; Batch 1, stored at 2-8° C., 6 months",[3],24 ng/mL
same,"EC50 (ng/ml) by PRNT assay; Batch 1, stored at 2-8° C., 9 months",[3],23.4 ng/mL
same,"EC50 (ng/ml) by PRNT assay; Batch 2, stored at 2-8° C., 0 day",[3],22.5 ng/mL
same,"EC50 (ng/ml) by PRNT assay; Batch 2, stored at 2-8° C., 3 months",[3],22.4 ng/mL
same,"EC50 (ng/ml) by PRNT assay; Batch 2, stored at 2-8° C., 6 months",[3],16.6 ng/mL
same,"EC50 (ng/ml) by PRNT assay; Batch 2, stored at 2-8° C., 9 months",[3],19.6 ng/mL
same,"EC50 (ng/ml) by PRNT assay; Batch 1, stored at 25° C., 0 day",[4],5.9 ng/mL
same,"EC50 (ng/ml) by PRNT assay; Batch 1, stored at 25° C., 30 days",[4],5.6 ng/mL
same,"EC50 (ng/ml) by PRNT assay; Batch 2, stored at 25° C., 0 day",[4],3.26 ng/mL
same,"EC50 (ng/ml) by PRNT assay; Batch 2, stored at 25° C., 30 days",[4],5.51 ng/mL
same,"EC50 (ng/ml) by PRNT assay; Batch 1, stored at 25° C., 0 day",[5],14.4 ng/mL
same,"EC50 (ng/ml) by PRNT assay; Batch 1, stored at 25° C., 30 days",[5],9.63 ng/mL
same,"EC50 (ng/ml) by PRNT assay; Batch 2, stored at 25° C., 0 day",[5],13.2 ng/mL
same,"EC50 (ng/ml) by PRNT assay; Batch 2, stored at 25° C., 30 days",[5],9.25 ng/mL
same,"EC50 (ng/ml) by PRNT assay; Batch 1, stored at 25° C., 0 day",[6],30.3 ng/mL
same,"EC50 (ng/ml) by PRNT assay; Batch 1, stored at 25° C., 30 days",[6],35.3 ng/mL
same,"EC50 (ng/ml) by PRNT assay; Batch 2, stored at 25° C., 0 day",[6],22.5 ng/mL
same,"EC50 (ng/ml) by PRNT assay; Batch 2, stored at 25° C., 30 days",[6],30.7 ng/mL
same,"EC50 (ng/ml) by PRNT assay; Batch 1, 40° C. study, Control, 0 day",[7],6.66 ng/mL
same,"EC50 (ng/ml) by PRNT assay; Batch 1, 40° C. study, Control, 7 days",[7],6.37 ng/mL
same,"EC50 (ng/ml) by PRNT assay; Batch 1, 40° C. study, Control, 14 days",[7],6.18 ng/mL
same,"EC50 (ng/ml) by PRNT assay; Batch 1, stored at 40° C., Test, 7 days",[7],26.9 ng/mL
same,"EC50 (ng/ml) by PRNT assay; Batch 1, stored at 40° C., Test, 14 days",[7],36.1 ng/mL
